For the assay, the target named is SARS-CoV-2 6P stabilized S trimer (SARS-CoV-2, Wuhan-Hu-1 reference, UniProt P0DTC2, stabilised). Kind of assay: cryo-EM structure.

B1: C051 Fab (Fab, V domains shown)
VH: EVQLVESGGGLIQAGGSLRLSCAASGFGVRNNYMSWVRQAPGKGLEWVSVIYSGGTTYYADSVKGRFTISRDNSKNTVFLQMNSLRAEDTAVYYCAREGDVEGFSDLWSGYSRDRYYFDYWGQGTLVTVSS
VL: QSVLTQPASVSGSPGQSITFSCTGTSSDVGGYNYVSWYQQYPGKAPKLLIYDVTNRPSGVSDRFSGSKSGNTASLTISGLQAEDEADYYCSSFTSSNTRVFGTGTKVTVL
For the molecule B1, the binding result is “binds”.

The record behind these values is PMC7987023 (bioRxiv, 2021).
